In patent US20220289850 (published 2022) one finds Kd data, which are given here for three molecules.

Numbering of substitutions follows the chain as printed. Several values for one entry are separate records, joined by “and”; a condition that tells them apart may be missing. Equal values may be shown once. A value given as a limit tells only on which side of the number the result lay.

In the assay the target is T1, mouse integrin avb8 (mouse).
T1 chain 1: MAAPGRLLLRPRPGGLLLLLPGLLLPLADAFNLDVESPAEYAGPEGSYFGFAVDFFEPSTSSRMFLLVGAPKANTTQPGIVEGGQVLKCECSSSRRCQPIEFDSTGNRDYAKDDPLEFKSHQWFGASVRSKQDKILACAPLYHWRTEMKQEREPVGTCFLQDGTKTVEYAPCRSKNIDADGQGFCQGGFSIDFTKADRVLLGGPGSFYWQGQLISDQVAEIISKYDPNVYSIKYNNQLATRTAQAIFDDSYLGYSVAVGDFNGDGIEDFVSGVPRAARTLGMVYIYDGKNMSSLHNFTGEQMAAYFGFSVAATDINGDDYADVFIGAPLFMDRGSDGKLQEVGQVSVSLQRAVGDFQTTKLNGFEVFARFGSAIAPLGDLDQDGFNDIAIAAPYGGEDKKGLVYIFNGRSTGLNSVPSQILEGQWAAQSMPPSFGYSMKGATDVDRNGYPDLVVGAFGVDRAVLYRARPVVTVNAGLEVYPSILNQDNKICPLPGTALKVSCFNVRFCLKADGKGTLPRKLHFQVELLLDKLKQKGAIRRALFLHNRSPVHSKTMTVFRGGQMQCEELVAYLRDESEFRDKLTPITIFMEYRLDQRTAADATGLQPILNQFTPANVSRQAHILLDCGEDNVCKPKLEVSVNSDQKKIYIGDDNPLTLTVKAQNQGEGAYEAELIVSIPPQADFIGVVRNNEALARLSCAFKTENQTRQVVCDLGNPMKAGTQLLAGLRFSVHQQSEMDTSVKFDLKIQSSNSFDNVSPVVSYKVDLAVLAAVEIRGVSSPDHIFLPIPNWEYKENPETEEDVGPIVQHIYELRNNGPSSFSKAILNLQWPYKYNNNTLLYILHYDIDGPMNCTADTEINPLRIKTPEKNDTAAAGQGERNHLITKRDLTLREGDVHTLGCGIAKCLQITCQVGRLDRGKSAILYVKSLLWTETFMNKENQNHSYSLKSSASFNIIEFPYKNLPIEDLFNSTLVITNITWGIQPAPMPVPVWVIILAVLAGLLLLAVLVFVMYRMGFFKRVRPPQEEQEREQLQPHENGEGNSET
T1 chain 2: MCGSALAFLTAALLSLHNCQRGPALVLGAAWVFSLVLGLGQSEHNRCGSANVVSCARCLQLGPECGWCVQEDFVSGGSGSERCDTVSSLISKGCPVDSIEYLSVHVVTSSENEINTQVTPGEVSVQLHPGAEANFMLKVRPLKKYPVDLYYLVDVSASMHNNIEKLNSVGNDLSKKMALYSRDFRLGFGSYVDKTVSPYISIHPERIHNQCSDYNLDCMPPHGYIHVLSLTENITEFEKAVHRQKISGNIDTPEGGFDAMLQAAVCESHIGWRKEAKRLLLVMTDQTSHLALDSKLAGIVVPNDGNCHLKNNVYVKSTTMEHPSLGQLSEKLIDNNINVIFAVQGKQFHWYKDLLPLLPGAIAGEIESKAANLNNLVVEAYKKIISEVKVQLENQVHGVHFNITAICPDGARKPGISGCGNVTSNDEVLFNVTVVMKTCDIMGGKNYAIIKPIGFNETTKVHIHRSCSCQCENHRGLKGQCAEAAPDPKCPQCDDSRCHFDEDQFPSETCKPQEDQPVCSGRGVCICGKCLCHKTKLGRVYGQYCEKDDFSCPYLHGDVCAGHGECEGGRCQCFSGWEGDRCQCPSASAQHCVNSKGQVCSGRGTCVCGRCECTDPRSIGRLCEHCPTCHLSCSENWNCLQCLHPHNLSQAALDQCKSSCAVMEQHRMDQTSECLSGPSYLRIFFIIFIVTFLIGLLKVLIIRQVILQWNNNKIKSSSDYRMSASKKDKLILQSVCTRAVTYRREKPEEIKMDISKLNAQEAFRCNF
Description: SPR 25C.

B1: ADWA11 VH05/VK01 (VH05-2_VK01) Fab (antibody, V domains shown)
VH: EVQLVESGGGLVQPGGSLRLSCAASGFNIKDYYMNWVRQAPGKGLEWVGWIDPDNGNTIYDPKFQGRFTISADTSKNSAYLQMNSLRAEDTAVYYCARRLLMDYWGQGTLVTVSS
VL: DIQMTQSPSSLSASVGDRVTITCRSTKSLLHFNGNTYLFWYQQKPGKAPKRLIYYMSNLASGVPSRFSGSGSGTDFTLTISSLQPEDFATYYCMQSLEYPFTFGQGTKVEIK
As for B1, the Kd was < 0.1 nM and 0.137 nM.

B2: ADWA11 2.4 Fab (antibody, V domains shown)
VH: B1 VH with N55Q, D61E
VL: B1 VL with L30S, N58S, M94Q, Q105G
For the molecule B2, the Kd is under 0.2 nM.

B3: Mouse hybridoma ADWA-11 Fab (antibody, V domains shown)
VH: EVQLQQSGAELVRPGAFVKLSCKASGFNIKDYYMNWVLQRPEQGLEWIGWIDPDNGNTIYDPKFQGKASITADTSSNTAYLQLSSLTSEDTAVYYCARRLLMDYWGQGTSVTVSS
VL: DIVMTQAAPSVPVTPGESVSISCRSTKSLLHFNGNTYLFWFLQRPGQSPQRLIYYMSNLASGVPDRFSGRGSGTDFTLRISRVEAEDVGVYYCMQSLEYPFTFGTGTKLEIK
For the molecule B3, the Kd was 0.489 nM.

Usually Kd stands for the concentration at which binding is half-saturated. A higher Kd goes with weaker binding.
